± gives the standard deviation of the averaged measurements.
Assay: total protein half-life in vivo (active degradation + dilution); higher = more stable protein
[1] = E. coli NCM3722 delta-clpP delta-lon delta-hslV, growth: N-lim chemostat, doubling time 6 h
[2] = E. coli NCM3722 delta-clpP, growth: N-lim chemostat, doubling time 6 h
[3] = E. coli NCM3722 delta-hslV, growth: N-lim chemostat, doubling time 6 h
[4] = E. coli NCM3722 delta-lon, growth: N-lim chemostat, doubling time 6 h
[5] = E. coli NCM3722 delta-smpB, growth: N-lim chemostat, doubling time 6 h
[6] = wild type E. coli NCM3722, growth: C-lim chemostat, doubling time 12 h
[7] = wild type E. coli NCM3722, growth: N-lim chemostat, doubling time 6 h
[8] = wild type E. coli NCM3722, growth: N-lim chemostat, doubling time 12 h
[9] = wild type E. coli NCM3722, growth: P-lim chemostat, doubling time 6 h
[10] = wild type E. coli NCM3722, growth: P-lim chemostat, doubling time 12 h
[11] = wild type E. coli NCM3722, growth: C-lim chemostat, doubling time 3 h
[12] = wild type E. coli NCM3722, growth: C-lim chemostat, doubling time 6 h

Chain of P0ADC1 (chain, as listed by the source): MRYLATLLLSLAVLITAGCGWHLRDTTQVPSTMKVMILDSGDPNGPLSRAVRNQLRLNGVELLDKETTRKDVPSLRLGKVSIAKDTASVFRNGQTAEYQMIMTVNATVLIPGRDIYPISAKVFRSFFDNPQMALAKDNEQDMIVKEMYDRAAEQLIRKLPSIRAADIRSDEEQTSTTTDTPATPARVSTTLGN

MRNLVKYVGIGLLVMGLAACDDKDTNATAQGSVAESNATGNPVNLLDGKLSFSLPADMTDQSGKLGTQANNMHVWSDATGQKAVIVIMGDDPKEDLAVLAKRLEDQQRSRDPQLQVVTNKAIELKGHKMQQLDSIISAKGQTAYSSVILGNVGNQLLTMQITLPADDQQKAQTTAENIINTLVIQ [P0AEE1]
total protein half-life in vivo [1]: 6.11 ± 1.1 h | total protein half-life in vivo [2]: 5.96 ± 0.21 h | total protein half-life in vivo [3]: 5.42 ± 0.085 h | total protein half-life in vivo [4]: 6.24 ± 0.22 h | total protein half-life in vivo [5]: 6.05 ± 1.3 h | total protein half-life in vivo [6]: 11.3 ± 1 h | total protein half-life in vivo [7]: 5.6 ± 0.16 h | total protein half-life in vivo [8]: 10.9 ± 0.59 h | total protein half-life in vivo [9]: 5.55 ± 1.2 h | total protein half-life in vivo [10]: 10.9 ± 0.47 h

MKNKLPPFIEIYRALIATPSISATEEALDQSNADLITLLADWFKDLGFNVEVQPVPGTRNKFNMLASIGQGAGGLLLAGHTDTVPFDDGRWTRDPFTLTEHDGKLYGLGTADMKGFFAFILDALRDVDVTKLKKPLYILATADEETSMAGARYFAETTALRPDCAIIGEPTSLQPVRAHKGHISNAIRIQGQSGHSSDPARGVNAIELMHDAIGHILQLRDNLKERYHYEAFTVPYPTLNLGHIHGGDASNRICACCELHMDIRPLPGMTLNELNGLLNDALAPVSERWPGRLTVDELHPPIPGYECPPNHQLVEVVEKLLGAKTEVVNYCTEAPFIQTLCPTLVLGPGSINQAHQPDEYLETRFIKPTRELITQVIHHFCWH
total protein half-life in vivo [1]: 4.97 ± 0.62 h | total protein half-life in vivo [2]: 4.73 ± 0.34 h | total protein half-life in vivo [3]: 4.636 ± 0.017 h | total protein half-life in vivo [4]: 4.68 ± 0.19 h | total protein half-life in vivo [5]: 4.29 ± 0.23 h | total protein half-life in vivo [11]: 3.27 ± 0.46 h | total protein half-life in vivo [12]: 5.46 ± 0.24 h | total protein half-life in vivo [6]: 10.9 ± 2.2 h | total protein half-life in vivo [7]: 4.68 ± 0.058 h | total protein half-life in vivo [8]: 7.38 ± 0.21 h | total protein half-life in vivo [9]: 5.95 ± 0.067 h | total protein half-life in vivo [10]: 11 ± 0.37 h

P0ADC1
total protein half-life in vivo [1]: 6.56 ± 1.7 h | total protein half-life in vivo [3]: 6.27 ± 0.14 h | total protein half-life in vivo [5]: 6.59 ± 0.86 h | total protein half-life in vivo [11]: 2.97 ± 0.026 h | total protein half-life in vivo [12]: 6.71 ± 0.69 h | total protein half-life in vivo [6]: 12.9 ± 0.43 h | total protein half-life in vivo [7]: 6.33 ± 0.095 h | total protein half-life in vivo [8]: 11.7 ± 1.9 h | total protein half-life in vivo [10]: 12.7 ± 0.69 h

MALIVEFICELPNGVHARPASHVETLCNTFSSQIEWHNLRTDRKGNAKSALALIGTDTLAGDNCQLLISGADEQEAHQRLSQWLRDEFPHCDAPLAEVKSDELEPLPVSLTNLNPQIIRARTVCSGSAGGILTPISSLDLNALGNLPAAKGVDAEQSALENGLTLVLKNIEFRLLDSDGATSAILEAHRSLAGDTSLREHLLAGVSAGLSCAEAIVASANHFCEEFSRSSSSYLQERALDVRDVCFQLLQQIYGEQRFPAPGKLTQPAICMADELTPSQFLELDKNHLKGLLLKSGGTTSHTVILARSFNIPTLVGVDIDALTPWQQQTIYIDGNAGAIVVEPGEAVARYYQQEARVQDALREQQRVWLTQQARTADGIRIEIAANIAHSVEAQAAFGNGAEGVGLFRTEMLYMDRTSAPGESELYNIFCQALESANGRSIIVRTMDIGGDKPVDYLNIPAEANPFLGYRAVRIYEEYASLFTTQLRSILRASAHGSLKIMIPMISSMEEILWVKEKLAEAKQQLRNEHIPFDEKIQLGIMLEVPSVMFIIDQCCEEIDFFSIGSNDLTQYLLAVDRDNAKVTRHYNSLNPAFLRALDYAVQAVHRQGKWIGLCGELGAKGSVLPLLVGLGLDELSMSAPSIPAAKARMAQLDSRECRKLLNQAMACRTSLEVEHLLAQFRMTQQDAPLVTAECITLESDWRSKEEVLKGMTDNLLLAGRCRYPRKLEADLWAREAVFSTGLGFSFAIPHSKSEHIEQSTISVARLQAPVRWGDDEAQFIIMLTLNKHAAGDQHMRIFSRLARRIMHEEFRNALVNAASADAIASLLQHELEL
total protein half-life in vivo [11]: 2.7 h | total protein half-life in vivo [6]: 7.46 h

MTPDELARLTGYSRQTINKWVRKEGWTTSPKPGVQGGKARLVHVNEQVREYIRNAERPEGQGEAPALSGDAPLEVLLVTLAKEMTPVEQKQFTSLLLREGIIGLLQRLGIRDSK [P0AD37]
total protein half-life in vivo [11]: 1.89 h

MTLLNISGLSHHYAHGGFNGKHQHQAVLNNVSLTLKSGETVALLGRSGCGKSTLARLLVGLESPAQGNISWRGEPLAKLNRAQRKAFRRDIQMVFQDSISAVNPRKTVREILREPMRHLLSLKKSEQLARASEMLKAVDLDDSVLDKRPPQLSGGQLQRVCLARALAVEPKLLILDEAVSNLDLVLQAGVIRLLKKLQQQFGTACLFITHDLRLVERFCQRVMVMDNGQIVETQVVGEKLTFSSDAGRVLQNAVLPAFPVRRRTTEKV
total protein half-life in vivo [1]: 6.58 h

MARKTKPLTDTEIKAAKPKDADYQLYDGDGLTLLIKSSGSKLWQFRYYRPLTKQRTKQSFGAYPAVSLSDARKLRAESKVLLAKDIDPQEHQKEQVRNSQEAKTNTFLLVAERWWNVKKTSVTEDYADDIWRSLERDIFPAIGDISITEIKAHTLVKAVQPVQARGALETVRRLCQRINEVMIYAQNTGLIDAVPSVNIGKAFEKPQKKNMPSIRPDQLPQLMHTMRTASISMSTRCLFMWQLLTITRPAEAAEARWDEIDFNASEWKIPAARMKMNRDHTVPLSDGALAILEMMKPLSGGREFIFPSRIKPNQPMNSQTVNAALKRAGLGGVLVSHGLRSIASTALNEEGFPPDVIEAALAHVDKNEVRRAYNRSDYLEQRRPMMQWWADLVKAADSGSIVLTHLSKIRLVG
total protein half-life in vivo [1]: 5.38 ± 0.81 h | total protein half-life in vivo [3]: 0.734 ± 0.064 h | total protein half-life in vivo [4]: 1.362 ± 0.0065 h | total protein half-life in vivo [5]: 0.777 ± 0.0083 h | total protein half-life in vivo [11]: 1.16 ± 0.22 h | total protein half-life in vivo [12]: 1.13 ± 0.079 h | total protein half-life in vivo [6]: 0.594 h | total protein half-life in vivo [7]: 1.7 ± 0.26 h | total protein half-life in vivo [8]: 0.847 h | total protein half-life in vivo [9]: 0.572 h | total protein half-life in vivo [10]: 1.64 ± 0.32 h

MFNEVHSIHGHTLLLITKSSLQATALLQHLKQSLAITGKLHNIQRSLDDISSGSIILLDMMEADKKLIHYWQDTLSRKNNNIKILLLNTPEDYPYRDIENWPHINGVFYSMEDQERVVNGLQGVLRGECYFTQKLASYLITHSGNYRYNSTESALLTHREKEILNKLRIGASNNEIARSLFISENTVKTHLYNLFKKIAVKNRTQAVSWANDNLRR
total protein half-life in vivo [2]: 1.72 ± 0.18 h | total protein half-life in vivo [3]: 0.584 h | total protein half-life in vivo [5]: 0.772 h | total protein half-life in vivo [7]: 0.875 h | total protein half-life in vivo [8]: 1.84 h | total protein half-life in vivo [10]: 1.48 ± 0.36 h

MKLFYKPGACSLASHITLRESGKDFTLVSVDLMKKRLENGDDYFAVNPKGQVPALLLDDGTLLTEGVAIMQYLADSVPDRQLLAPVNSISRYKTIEWLNYIATELHKGFTPLFRPDTPEEYKPTVRAQLEKKLQYVNEALKDEHWICGQRFTIADAYLFTVLRWAYAVKLNLEGLEHIAAFMQRMAERPEVQDALSAEGLK [P0A9D2]
total protein half-life in vivo [1]: 4.9 ± 0.3 h | total protein half-life in vivo [2]: 5.74 ± 1.9 h | total protein half-life in vivo [3]: 4.81 ± 0.22 h | total protein half-life in vivo [4]: 6.34 ± 1.4 h | total protein half-life in vivo [5]: 4.64 ± 0.58 h | total protein half-life in vivo [11]: 2.84 ± 0.23 h | total protein half-life in vivo [12]: 5.69 ± 0.32 h | total protein half-life in vivo [6]: 11.6 ± 2.5 h | total protein half-life in vivo [7]: 4.81 ± 0.2 h | total protein half-life in vivo [8]: 9.9 ± 0.87 h | total protein half-life in vivo [9]: 5.44 ± 0.29 h | total protein half-life in vivo [10]: 10.6 ± 0.74 h

MTQGAVKTTGKRSRAVSAKKKAILSAALDTFSQFGFHGTRLEQIAELAGVSKTNLLYYFPSKEALYIAVLRQILDIWLAPLKAFREDFAPLAAIKEYIRLKLEVSRDYPQASRLFCMEMLAGAPLLMDELTGDLKALIDEKSALIAGWVKSGKLAPIDPQHLIFMIWASTQHYADFAPQVEAVTGATLRDEVFFNQTVENVQRIIIEGIRPR [P0ACU2]
total protein half-life in vivo [1]: 6.17 ± 0.95 h | total protein half-life in vivo [2]: 5.74 ± 0.36 h | total protein half-life in vivo [4]: 5.5 ± 0.84 h | total protein half-life in vivo [5]: 4.92 ± 0.71 h | total protein half-life in vivo [11]: 2.31 ± 0.54 h | total protein half-life in vivo [12]: 5.35 h | total protein half-life in vivo [6]: 12.1 ± 1.9 h | total protein half-life in vivo [7]: 5.39 ± 0.83 h | total protein half-life in vivo [8]: 10.8 ± 1.4 h | total protein half-life in vivo [9]: 4.61 ± 0.38 h | total protein half-life in vivo [10]: 9.98 ± 0.25 h

— the supplement of paper PMC11246515
